The target of test [1] is T1, human TPBG (full length, on cells) (human, UniProt Q13641 32-420).
T1 sequence (looked up): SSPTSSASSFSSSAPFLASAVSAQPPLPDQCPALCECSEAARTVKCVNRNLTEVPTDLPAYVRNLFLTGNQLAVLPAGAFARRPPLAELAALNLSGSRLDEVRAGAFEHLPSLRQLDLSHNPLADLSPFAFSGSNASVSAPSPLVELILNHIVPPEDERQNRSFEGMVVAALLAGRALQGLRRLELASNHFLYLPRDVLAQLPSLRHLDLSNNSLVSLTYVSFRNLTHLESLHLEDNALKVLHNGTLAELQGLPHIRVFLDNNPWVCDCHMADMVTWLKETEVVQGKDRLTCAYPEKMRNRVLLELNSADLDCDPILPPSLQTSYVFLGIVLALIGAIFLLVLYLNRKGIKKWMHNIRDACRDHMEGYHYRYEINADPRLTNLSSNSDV
Nature of the test: cell-based or functional assay.

The target in test [2] is T1, human TPBG (full length, on cells). Nature of the test: FACS, HEK293 clone 293F-hTPBG 4G6. In general terms: In flow cytometry, cells or beads pass a laser one at a time.
Test [3] has the same target. In words: FACS, HEK293 clone 293F-hTPBG 5D4.
The target is the same in test [4]. Nature of the test: FACS, HEK293 clone 293F-hTPBG 4C3.
Test [5] has the same target. Nature of the test: FACS on CHO-k1-hTPBG 3A2F1 cells.
The target is the same in test [6]. Nature of the test: FACS, HEK293 clone 293F-hTPBG 5E6.
For test [7] the target is unchanged. Nature of the test: FACS, HEK293 clone 293F-hTPBG 5A11.
For test [8] the target is unchanged. Nature of the test: FACS, HEK293 clone 293F-hTPBG 5A9.
In test [9] the target is cynomolgus monkey TPBG (full length, on cells) (cynomolgus monkey) (UniProt Q4R8Y9). Nature of the test: FACS on CHO-k1-cTPBG 3F13G4 cells.
Test [10] has as its target T1, human TPBG (full length, on cells). Nature of the test: FACS, HEK293 cell strain 5E5E9 transfected with human TPBG.
For test [11] the target is unchanged. Nature of the test: FACS, HEK293 clone 293F-hTPBG 4E1.
Test [12] has the same target. Nature of the test: FACS, HEK293 clone 293F-hTPBG 4F9.
Test [13] shares this target. Nature of the test: FACS, HEK293 clone 293F-hTPBG 5C12.
For test [14] the target is unchanged. In words: FACS, HEK293 clone 293F-hTPBG 4E1 (NO. 8).
For test [15] the target is unchanged. Nature of the test: FACS, HEK293 clone 293F-hTPBG 4C5.
For test [16] the target is unchanged. Nature of the test: FACS, HEK293 clone 293F-hTPBG 5H6.
Test [17] has the same target. Nature of the test: FACS, HEK293 clone 293F-hTPBG 4A9.
The target in test [18] is T2, mouse TPBG (full length, on cells) (mouse, UniProt Q9Z0L0 32-426).
T2 construct: whole, on cells; On transfected CHO-K1 cells; also called mTPBG; CHO-K1-mTPBG
T2 sequence (looked up): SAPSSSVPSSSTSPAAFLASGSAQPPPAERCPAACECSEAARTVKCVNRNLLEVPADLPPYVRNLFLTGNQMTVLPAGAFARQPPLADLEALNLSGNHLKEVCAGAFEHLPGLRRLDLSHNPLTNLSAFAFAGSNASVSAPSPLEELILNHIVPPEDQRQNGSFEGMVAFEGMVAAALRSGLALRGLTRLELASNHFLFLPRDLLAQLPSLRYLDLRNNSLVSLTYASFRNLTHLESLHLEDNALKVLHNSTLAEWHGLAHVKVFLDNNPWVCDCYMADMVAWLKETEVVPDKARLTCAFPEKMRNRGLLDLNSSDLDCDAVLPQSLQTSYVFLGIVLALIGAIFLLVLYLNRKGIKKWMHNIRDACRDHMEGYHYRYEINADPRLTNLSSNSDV
Nature of the test: FACS on CHO-k1-mTPBG 3A3 cells.

In test [19] the target is T1, human TPBG (full length, on cells). In words: FACS, HEK293 clone 293F-hTPBG 4B9.
Test [20] has the same target. In words: FACS, HEK293 clone 293F-hTPBG 4H12.
For test [21] the target is unchanged. Nature of the test: FACS, HEK293 clone 293F-hTPBG 5G8.
For test [22] the target is unchanged. Nature of the test: FACS, HEK293 clone 293F-hTPBG 5G11.
Test [23] shares this target. Nature of the test: FACS, HEK293 clone 293F-hTPBG 4A8.
Test [24] shares this target. Nature of the test: FACS, HEK293 clone 293F-hTPBG 5E5.
Test [25] has the same target. Nature of the test: FACS, HEK293 clone 293F-hTPBG 4G1.
Test [26] has the same target. In words: cell-based or functional assay. The source holds these as a separate data set.
Test [27] shares this target. In words: cell-based or functional assay. This is another data set of the same source.
Test [28] has the same target. Nature of the test: cell-based or functional assay. This is another data set of the same source.

Read-outs that look alike come from different tables or passages of the source. Bounds are passed on as bounds.

Control hIgG-MMAF (antibody) showed an IC50 of cytotoxicity on TPBG-positive NCI-H1299 cells (CellTiter-Glo) in test [1] greater than 100000 pM.
With “commercial available TPBG antibody (purchased from Sigma, Lot NO: SAB1404485)”, the MFI in test [2] was found to be 31.8 MFI; in test [3], 70.6 MFI; in test [4], 27.2 MFI; in test [5], 798 MFI; in test [6] it was 13.2 MFI; in [7], 166 MFI. Besides, the MFI came out at 53.2 MFI in test [8]; 198 MFI in [9]; 216 MFI in [10]; 145 MFI in [11]; 47.7 MFI in test [12]; 75.4 MFI in [13]. Besides, the MFI was determined as 91.8 MFI in test [14]; 172 MFI in [15]; 36.4 MFI in test [16]; 204 MFI in [17]; 135 MFI in test [18]; 126 MFI in [19]. In addition, the MFI in test [20] is 9.5 MFI; in [21], 168 MFI; in [22] it was 11.3 MFI; in [23], 33.4 MFI; in [24] it was 280 MFI; in test [25] it was 131 MFI. This molecule also showed a percentage of TPBG-positive cells in test [10] of 98.5%.

B1: Chimeric Antibody 12B12-MMAF (antibody, human IgG1, DAR 3, V domains shown)
VH: DVQLVESGGGLVQPGGSRKLSCAASGFTFSNFGMHWVRQAPEKGLEWVAYISSGSTSFYYADTVKGRFTISRDNPKNTLFLQMTSLRSEDTAMYYCSRTNSLLRGFFDAWGAGTTVTVSS
VL: DIVLTQSPASLAVSLGQRATISCRASQSVSSSSYTYLHWYQQKPGQPPKLLIKSASNLESGVPARFSGTGSGTDFTLNIHPVEEEDTATYYCQHSWEIPLTFGAGTKLELK
modifications: MC-MMAF on cysteines after TCEP reduction, sites not stated
Turning to B1, in test [26], the “IC50 of cytotoxicity on TPBG-positive NCI-H1299 cells (CellTiter-Glo)” value came out at 40 pM and the “IC50 of cytotoxicity on TPBG-positive NCI-H1568 cells (CellTiter-Glo)” value worked out at 25 pM. Besides, the “IC50 of cytotoxicity on TPBG-positive NCI-H1299 cells (CellTiter-Glo)” value in test [27] is 130 pM. The “IC50 of cytotoxicity on recombinant 293-hTPBG cells (CellTiter-Glo)” value in test [28] stood at 1 pM.

B2: Chimeric Antibody 28D4-MMAF (antibody, human IgG1, DAR 3, V domains shown)
VH: DVQLVESGGGLVRPGGSLKLSCAASGFTFSNYVMSWARQSPEKRLEWVAEISTGGSHTYYSDTVTGRFTISRDNAKKALYLEMSSLRSEDTAIYYCIMFYYGSSYSMDYWGQGTSVTVSS
VL: DIQMTQSTSSLSASLGDRITISCRASQDIRNYLNWYQQKPDGTVKLLIYHTSRLHSGVPSRFSGSGSGTDYSLTISNLEQEDIATYFCQQGDTLPLTFGAGTRLELK
modifications: MC-MMAF on cysteines after TCEP reduction, sites not stated
Take B2: in test [26], the “IC50 of cytotoxicity on TPBG-positive NCI-H1299 cells (CellTiter-Glo)” value came to 132 pM and the “IC50 of cytotoxicity on TPBG-positive NCI-H1568 cells (CellTiter-Glo)” value amounted to 66 pM. Besides, the “IC50 of cytotoxicity on TPBG-positive NCI-H1299 cells (CellTiter-Glo)” value in test [27] was determined as 210 pM. Besides, the “IC50 of cytotoxicity on recombinant 293-hTPBG cells (CellTiter-Glo)” value in test [28] is 24 pM.

B3: Chimeric Antibody 28D4-MMAE (antibody, human IgG1, DAR about 3, V domains shown)
VH: B2 VH
VL: B2 VL
modifications: MC-VC-PAB-MMAE on cysteines after TCEP reduction, sites not stated
As for B3, in test [26], the “IC50 of cytotoxicity on TPBG-positive NCI-H1299 cells (CellTiter-Glo)” value turned out to be 369000 pM and the “IC50 of cytotoxicity on TPBG-positive NCI-H1568 cells (CellTiter-Glo)” value was greater than 100000 pM. For the same molecule, in test [28], the “IC50 of cytotoxicity on recombinant 293-hTPBG cells (CellTiter-Glo)” value came to 80 pM.

B4: Chimeric Antibody 28D4-DM1 (antibody, human IgG1, DAR about 3, V domains shown)
VH: B2 VH
VL: B2 VL
modifications: SMCC-DM1, sites not stated
As to B4, in test [26], the “IC50 of cytotoxicity on TPBG-positive NCI-H1299 cells (CellTiter-Glo)” value was 6080 pM and the “IC50 of cytotoxicity on TPBG-positive NCI-H1568 cells (CellTiter-Glo)” value came to 2510 pM. The “IC50 of cytotoxicity on recombinant 293-hTPBG cells (CellTiter-Glo)” value in test [28] was found to be 406 pM.

B5: Chimeric Antibody 5G4-MMAF (antibody, human IgG1, DAR 3, V domains shown)
VH: EVQLVESGGDLVQPGGSLKLFCAASGFTFSTYGLSWVRQTPDKRLELVATITNNDGSAYYPDSVKGRFTISRDKAKNTLFLQMTSLKSEDTAMYYCARETGFGSSYLFDYWGQGTLVTVSA
VL: NIVMTQTPKFLLVSAGDRVTITCKASQSVSNDVAWYQQKPGQSPKLLIYFATNRYTGVPNRFTGSGYGTEFTFTISSVQAEDLAVYFCQQDYSSPTFGGGTKLEIK
modifications: MC-MMAF on cysteines after TCEP reduction, sites not stated
Regarding B5, the “IC50 of cytotoxicity on TPBG-positive NCI-H1299 cells (CellTiter-Glo)” value in test [27] amounted to 87300 pM.

B6: Chimeric Antibody 36A10-MMAF (antibody, human IgG1, DAR 3, V domains shown)
VH: DVQLQESGPGMVKPSQSLSLTCTVTGYSITSGYDWHWIRHFPGNKLEWMGYISYSGNTNYNPSLKSRISITHNTSKNHFFLRLNSVTTEDTATYYCARGYGNWDAMDYWGQGTSVTVSS
VL: DIVMTQSQKFMSTSVGDRVSVTCKASQIVDTNVAWYQQKPGQSPKALISSASYRYSGVPDRFTGSGSGTDFTLTISNVQSEDLAEYFCQQYNSYPLTFGAGTKLELT
modifications: MC-MMAF on cysteines after TCEP reduction, sites not stated
On to B6, for which the “IC50 of cytotoxicity on TPBG-positive NCI-H1299 cells (CellTiter-Glo)” value in [27] was 700 pM.

B7: Chimeric Antibody 39A11-MMAF (antibody, human IgG1, DAR 3, V domains shown)
VH: QVQLQQSGAELMKPGASMRLSCKATGYTFTGYWLEWIKRRPGHGLEWIGEILPGRGSTNYNEKFKGKATFTAETSSNTAYMQLTSLTTEDSAIYYCARGGRDFDNWGQGTTLTVSS
VL: DIQMTQSTSSLSASLGDRVTISCSASQGINNHLNWYQQKPDGTVKLLIYYTSSLHSGVPSRFSGSGSGTDYSLTISNLEPEDIAIYYCQQFSKLPYTFGGGTKVEMK
modifications: MC-MMAF on cysteines after TCEP reduction, sites not stated
Regarding B7, the “IC50 of cytotoxicity on TPBG-positive NCI-H1299 cells (CellTiter-Glo)” value in [27] was 4300 pM.

These data come from patent US20210198377A1 (XDCEXPLORER SHANGHAI, published 2021).
